Measurements published in publication PMC7679444.

What follows are substances tested against GST-HA-ATG16L1(231–607) (UniProt Q676U5) (assay: peptide microarray). Conditions: 800, 600, 400 nM; n = 9; read off a plot.
“TMEM59 peptide (residues 268–280), wild type (from UniProt Q9BXS4) S275del” gave a percent of parent of 100 % WT.
“TMEM59 peptide (residues 268–280), wild type (from UniProt Q9BXS4) V269del; S271del” gave a percent of parent of 180 % WT.
“TMEM59 peptide (residues 268–280), wild type (from UniProt Q9BXS4) K273del” showed a percent of parent of 15 % WT.
In the case of “TMEM59 peptide (residues 268–280), wild type (from UniProt Q9BXS4) V269del; P270del”, the percent of parent is reported as 130 % WT.
“TMEM59 peptide (residues 268–280), wild type (from UniProt Q9BXS4) K273del; L274del; S275del” was tested, and the percent of parent was 120 % WT.
With “TMEM59 peptide (residues 268–280), wild type (from UniProt Q9BXS4) K273del; S275del” the percent of parent was 160 % WT.
For “TMEM59 peptide (residues 268–280), wild type (from UniProt Q9BXS4) P270del”, the percent of parent was 160 % WT.
In the case of “TMEM59 peptide (residues 268–280), wild type (from UniProt Q9BXS4) L274del”, the percent of parent is reported as 22 % WT.
“TMEM59 peptide (residues 268–280), wild type (from UniProt Q9BXS4) P270del; S271del” showed a percent of parent of 180 % WT.
“TMEM59 peptide (residues 268–280), wild type (from UniProt Q9BXS4) L274del; S275del; I276del” was tested, and the percent of parent was 72 % WT.
For “TMEM59 peptide (residues 268–280), wild type (from UniProt Q9BXS4) K273del; I276del”, the percent of parent was 32 % WT.
With “TMEM59 peptide (residues 268–280), wild type (from UniProt Q9BXS4) S275del; I276del” the percent of parent was 80 % WT.
Work on “TMEM59 peptide (residues 268–280), wild type (from UniProt Q9BXS4) K273del; L274del; I276del” yielded a percent of parent of 7 % WT.
“TMEM59 peptide (residues 268–280), wild type (from UniProt Q9BXS4) V269del” gave a percent of parent of 20 % WT.
In the case of “TMEM59 peptide (residues 268–280), wild type (from UniProt Q9BXS4) K273del; L274del”, the percent of parent is reported as 22 % WT.
“TMEM59 peptide (residues 268–280), wild type (from UniProt Q9BXS4) S271del” was tested, and the percent of parent was 180 % WT.
“TMEM59 peptide (residues 268–280), wild type (from UniProt Q9BXS4) I276del” was tested, and the percent of parent was 50 % WT.
In the case of “TMEM59 peptide (residues 268–280), wild type (from UniProt Q9BXS4) L274del; S275del”, the percent of parent is reported as 120 % WT.
With “TMEM59 peptide (residues 268–280), wild type (from UniProt Q9BXS4) L274del; I276del” the percent of parent was 20 % WT.
